One assay relates to MCF7 cells. As for the experimental part:
Activation of caspases during apoptosis was determined using the Apo-ONE homogenous caspase-3/7 assay (Promega Corp, Southampton UK), according to the manufacturer's instructions. Briefly, cells were grown to 90% confluence and washed three times with sterile PBS. Cells were harvested using Trypsin/EDTA and counted. Cells (10^4 per well) were seeded into a 96 well plate and incubated with R6313/G2 at concentrations from 0.1 to 3 μM in the presence or absence of 100 nmol/L angiotensin II, total volume 150 μl, for 24 and 48 hours. After incubation, caspase-3/7 Z-DEVD-R110 substrate (100 μl) was added to each well. Blank wells contained reagent alone, and controls omitted the antibody and/or angiotensin II. Fluorescence was measured every 2 hours over an 8 hour period using a Fluostar Optima spectrofluorimeter (BMG Laboratories, Offenburg Germany), with an excitation wavelength of 485 nm and an emission wavelength of 535 nm.

A short description of assay [1]: Rat blood pressure (tail cuff). More on the design: species or system Female Wistar rats. The note with it: intact rats in vivo. As for the experimental part: Rats were chosen for this part of the study in view of their greater tractability in blood pressure assays. Female Wistar rats were first acclimatised to handling and the blood pressure equipment for 4-5 days before experimentation. Blood pressure in the conscious animals was determined using a Kent Scientific Corporation (Torrington Conn., USA) Coda 6+ tail cuff system in which the animals were held in warmed restrainers while blood pressures were assessed. Animals were first stabilised and their basal blood pressure taken before treatment. They were then briefly removed from the restrainers for sc injection of R6313/G2, 0.4 mg/kg in sterile PBS (0.1 ml). Controls received PBS alone. Blood pressures were then taken at intervals over a period of 1 hour, before restoring to cages. The procedures were repeated daily for 3 days.

The target in assay [2] is T1, antigenic peptide […] (AT1 receptor) (Rattus norvegicus, UniProt P25095).
T1 construct: 96 well plates coated with the original antigenic peptide ([…]
As to the kind of experiment: Antigen ELISA during panning of scFv library. In kind it is binding. As for the experimental part: The 6313/G2 mouse monoclonal antibody hybridoma was grown as previously described (Barker et at J. Mol. Endocrinol. 11 241-245 (1993)). A pool of cDNA derived from mRNA was used to obtain heavy and light chains by PCR. A linker fragment encoding (Gly4Ser)3 was used to assemble the scFv library of inserts and a phage display library was created by directionally cloning these inserts into the pCANTAB 5 E phagemid vector (Amersham Pharmacia, High Wycombe, UK). An E-tag for the expressed sequence GAPVPYPDPLEPR (SEQ ID NO: 11) was included in this vector and used in subsequent panning and purification steps. The phagemid library was then used to transform TG1 E. coli, and phagemid rescue was carried out using the M13K07 helper phage followed by several rounds of panning Positive expressing clones were identified by ELISA using 96 well plates coated with the original antigenic peptide (EDGIKRIQDD; SEQ ID NO:1) and an anti-E-tag antibody (Amersham Pharmacia) detected using an HRP-linked secondary antibody. One particular clone was taken forward for expression and purification and functional assessment on the basis of giving the highest signal in the antigen ELISA.

Assay [3] addresses biotinylated peptide antigen (AT1 receptor) (Rattus norvegicus, UniProt P25095). Kind of assay: Quartz crystal microbalance binding (Attana 100). The note with it: 9 μg/ml, 100 second injection period; listed as 12D. As for the experimental part: Data were obtained comparing the characteristics of binding of the scFv variants and IgM to immobilised peptide antigen using the Attana 100 Quartz Crystal Microbalance. This involved use of a streptavidin (0.1 mg/ml)-coated biotin “chip” (gold-plated quartz crystal in an Attana 100 Biosensor (Quartz crystal microbalance (QCM)) (Attana AB, Stockholm, Sweden). Peptide antigen corresponding to that sequence used to raise the original murine hybridoma, biotinylated at the C-terminus, was then run across the chip at a concentration of 4 μg/ml to create a binding target for scFvs and IgM that were subsequently run across the surface of the QCM chip. Attester software (Attana, Sweden) was used to monitor changes in resonance frequency of the QCM chip in response to binding of a test antibody to the antigen. The magnitude of deflection in Hz over the period of sample injection of 100 s in Hz/second was determined for each antibody at a concentration of 9 μg/ml. The rate at which the antibody was then released from the QCM chip was also measured in Hz/second from the straight-line portion of the biosensor trace as antibody gradually departed from the chip and as the resonance frequency of the chip decreased. Running buffer was PBS containing 0.005% Tween 20 (PBST) and this was also used to make antibody dilutions to give a final protein concentration of 9 μg/ml in each case. The Attana 100 was set up with a 50 μl injection loop and was running with a constant pump speed of 20 μl/min. Samples and PBST buffer controls were injected over 100 seconds giving a sample volume across the chip of 33 μl. 100 mM (6.6 μl volume) phosphoric acid solution was used to regenerate the strepavidin-antigen surface between individual experimental sample runs.

Entries after “also recorded” stand apart in the source; their conditions may differ. Like-named read-outs stand apart in the source and are kept apart here.

B1: R6313/G2: murine scFv analogue of the 6313/G2 anti-AT1 receptor monoclonal antibody variable domains, SEQ ID NO:15 (protein)
scFv: YAAQPAMAQVKLQQSGPELEKPGASVKISCKASGYSFTGYNMNWVKQSNGKSLEWIGNIDPYYGGTTYNQKFKGKATLTVDKSSSTAYMQLKSLTSEDSAVYYCAREVDYWGQGTTVTVSSGGGGSGGGGSGGGGSDIELTQSPASLAVSLGQRATISYRASKSVSTSGYSYMHWNQQKPGQPPRLLIYLVSNLESGVPARFSGSGSGTDFTLNIHPVEEEDAATYYCQHIRELTRSEGTKLEIKRAAAGAPVPY
modifications: 12D
Turning to B1, the caspase-3/7 activity result in the assay on MCF7 cells (MCF7, R6313/G2 alone) was “reduced caspase-3/7 activity”. In the assay on MCF7 cells (MCF7, in the presence of angiotensin II), the caspase-3/7 activity entry is recorded as “dose dependently increased caspase-3/7 activity”. Further, in assay [1], the resting blood pressure entry was “does not reduce and may even increase resting blood pressure”; the “stress-induced increases in blood pressure” value is given as “significantly inhibits the stress-induced increases in blood pressure”. Moreover, the “activity of clones (preliminary studies)” value in assay [2] is “highest activity”. Moreover, in assay [3], the “change in resonance frequency (apparent on-rate, Hz/second) compared with IgM” value is reported as “significantly greater increases in resonance frequency; also recorded: significantly greater changes in resonance frequency”.
